Source: patent publication US20150017162A1 (OMEROS, published 2015)

Columns and labels:
human MASP-2 [1] = target: T1, human MASP-2 (human, UniProt O00187 16-686); assay: cell-based or functional assay
human MASP-2 [2] = target: T1, human MASP-2; assay: cell-based or functional assay; remark: listed apart in the source

T1 sequence (O00187 16-686): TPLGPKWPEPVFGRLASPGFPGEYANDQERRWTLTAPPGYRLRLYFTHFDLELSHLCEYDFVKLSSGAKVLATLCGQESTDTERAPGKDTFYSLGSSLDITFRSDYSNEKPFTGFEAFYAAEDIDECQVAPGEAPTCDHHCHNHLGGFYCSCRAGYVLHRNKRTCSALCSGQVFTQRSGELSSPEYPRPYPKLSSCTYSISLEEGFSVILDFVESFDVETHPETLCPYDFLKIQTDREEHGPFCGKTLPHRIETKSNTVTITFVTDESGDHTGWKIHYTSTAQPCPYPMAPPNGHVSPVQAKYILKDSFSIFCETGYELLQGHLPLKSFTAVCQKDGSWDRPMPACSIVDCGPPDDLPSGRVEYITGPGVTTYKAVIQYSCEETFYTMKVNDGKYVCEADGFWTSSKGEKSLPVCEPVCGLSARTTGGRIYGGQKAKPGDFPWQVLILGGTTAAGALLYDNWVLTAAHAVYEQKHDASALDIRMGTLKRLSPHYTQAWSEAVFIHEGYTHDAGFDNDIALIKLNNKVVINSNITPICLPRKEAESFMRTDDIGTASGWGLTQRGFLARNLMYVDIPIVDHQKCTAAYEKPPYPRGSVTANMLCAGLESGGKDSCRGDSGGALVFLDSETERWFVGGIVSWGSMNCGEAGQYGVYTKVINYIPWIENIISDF

IC50, C3 assay, 1% human serum (average value) (human MASP-2 [1]) | IC50, C4 deposition in full human serum (human MASP-2 [2]) | Binder
0.068 µM |  | scFv clone 17N16 (scFv) scFv: QVQLQQSGPGLVKPSQTLSLTCAISGDSVSSTSAAWNWIRQSPSRGLEWLGRTYYRSKWYNDYAVSVKSRITINPDTSKNQFSLQLNSVTPEDTAVYYCARDPFGVPFDIWGQGTMVTVSSKLSGSASAPKLEEGEFSEARVSYVLTQPPSVSVAPGQTARITCGGNNIGSKNVHWYQQKPGQAPVLVVYDDSDRPSGIPERFSGSNSGNTATLTVSRVEAGDEADYYCQVWDTTTDHVVFGGGTKLTVLAAAGSEQKLISEEDLNSHHHHHH
0.038 µM |  | scFv clone 17D20 (scFv) scFv: QVTLKESGPVLVKPTETLTLTCTVSGFSLSRGKMGVSWIRQPPGKALEWLAHIFSSDEKSYRTSLKSRLTISKDTSKNQVVLTMTNMDPVDTATYYCARIRAGGIDYWGQGTLVTVSSKLSGSASAPKLEEGEFSEARVQPVLTQPPSVSVSPGQTASITCSGDKLGDKFAYWYQQKPGHSPVLVIYQDNKRPSGIPGRFSGSNSGNTATLTISGTQAMDEADYYCQAWDSSTAVFGTGTKVTVLAAAGSEQKLISEEDLNSHHHHHH
0.048 µM |  | scFv daughter clone 17N16m_d17N9 (scFv) QVQLQQSGPGLVKPSQTLSLTCAISGDSVSSTSAAWNWIRQSPSRGLEWLGRTYYRSKWYNDYAVSVKSRITINPDTSKNQFSLQLNSVTPEDTAVYYCARDPFGVPFDIWGQGTMVTVSSSYELIQPPSVSVAPGQTATITCAGDNLGKKRVHWYQQRPGQAPVLVIYDDSDRPSGIPDRFSASNSGNTATLTITRGEAGDEADYYCQVWDIATDHVVFGGGTKLTVLAAAGSEQKLISE
 | 0.0318 mg/L | NimoAb101 (antibody, V domains shown) VH: EVQLVESGGGLVQPGRSLKLSCLVSGFTFSNFGMNWIRQAPGKGLEWVASISSGGTYIYHADTLKGRFTISRENAKNTLYLQMTSLRSEDTALYYCARGPYHSRYIPYLMDAWGQGASVTVSS VL: DIQMTQSPGSLCASLGETVTIECRASDDIYSNLAWYQQKPGNSPQLLIFDGNRLADGVPSRFSGSGSGTQYSLKMKSLQFEDVASYFCQQYNNYPLTFGSGTKLEIKR
